Where “and” joins values, the source holds several entries; their conditions need not be identical. Equal entries are not always repeated.
T1: HPV45型衣壳蛋白L1病毒样颗粒(VLP)抗原 (HPV 45型) (UniProt P36741)
T1 sequence: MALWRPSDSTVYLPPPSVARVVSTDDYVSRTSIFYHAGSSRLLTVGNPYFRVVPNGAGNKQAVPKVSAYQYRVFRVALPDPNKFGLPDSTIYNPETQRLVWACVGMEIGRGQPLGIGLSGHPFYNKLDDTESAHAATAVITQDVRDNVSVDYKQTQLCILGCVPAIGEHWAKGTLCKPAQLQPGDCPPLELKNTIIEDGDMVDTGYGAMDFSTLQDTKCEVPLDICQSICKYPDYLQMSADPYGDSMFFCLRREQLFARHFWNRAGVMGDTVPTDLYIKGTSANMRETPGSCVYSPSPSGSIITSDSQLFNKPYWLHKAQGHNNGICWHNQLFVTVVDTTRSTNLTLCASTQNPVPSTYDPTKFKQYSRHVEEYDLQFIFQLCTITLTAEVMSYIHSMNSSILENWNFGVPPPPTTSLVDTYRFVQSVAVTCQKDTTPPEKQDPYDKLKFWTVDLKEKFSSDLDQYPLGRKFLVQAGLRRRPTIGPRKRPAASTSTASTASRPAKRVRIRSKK

T2: HPV 31 VLP抗原 (HPV 31, UniProt P17388 1-504)
T2 sequence: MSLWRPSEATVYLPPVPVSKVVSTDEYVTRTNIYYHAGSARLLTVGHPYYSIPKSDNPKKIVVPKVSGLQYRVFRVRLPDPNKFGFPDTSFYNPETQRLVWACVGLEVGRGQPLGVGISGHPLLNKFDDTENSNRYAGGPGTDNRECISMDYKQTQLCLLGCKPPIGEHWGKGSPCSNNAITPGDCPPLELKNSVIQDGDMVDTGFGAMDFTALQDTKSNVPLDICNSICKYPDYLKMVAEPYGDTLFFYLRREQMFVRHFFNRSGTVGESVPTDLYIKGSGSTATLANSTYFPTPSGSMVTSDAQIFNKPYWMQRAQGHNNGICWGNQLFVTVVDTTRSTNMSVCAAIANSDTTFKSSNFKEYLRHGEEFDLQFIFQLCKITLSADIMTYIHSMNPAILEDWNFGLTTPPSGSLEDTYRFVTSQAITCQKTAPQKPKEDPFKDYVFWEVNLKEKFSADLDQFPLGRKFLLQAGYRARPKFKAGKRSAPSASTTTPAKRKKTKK

T3: HPV 58 VLP抗原 (HPV 58, UniProt P26535 27-524)
T3 sequence: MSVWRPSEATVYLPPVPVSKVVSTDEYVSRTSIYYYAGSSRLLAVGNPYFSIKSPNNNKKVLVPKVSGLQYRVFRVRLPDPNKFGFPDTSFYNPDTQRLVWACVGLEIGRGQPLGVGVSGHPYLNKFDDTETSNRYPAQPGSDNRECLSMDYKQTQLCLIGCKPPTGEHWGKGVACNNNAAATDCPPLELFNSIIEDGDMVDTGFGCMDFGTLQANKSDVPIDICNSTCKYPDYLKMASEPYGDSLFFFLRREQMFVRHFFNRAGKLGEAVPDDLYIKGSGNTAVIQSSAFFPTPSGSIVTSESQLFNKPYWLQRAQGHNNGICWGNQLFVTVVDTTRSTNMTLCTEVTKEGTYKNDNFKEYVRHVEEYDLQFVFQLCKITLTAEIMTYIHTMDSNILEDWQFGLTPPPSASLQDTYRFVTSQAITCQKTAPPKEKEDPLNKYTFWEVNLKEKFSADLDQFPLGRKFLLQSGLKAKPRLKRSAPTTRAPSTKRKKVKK


Experiments:
[1] = target: T1, HPV45型衣壳蛋白L1病毒样颗粒(VLP)抗原 (HPV 45型); assay: sandwich ELISA, rabbit pAb R163 capture 1:500, mAb 1:20000; antigen 13.3 ug/ml, 2.5-fold series, step 4
[2] = target: T1, HPV45型衣壳蛋白L1病毒样颗粒(VLP)抗原 (HPV 45型); assay: sandwich ELISA, rabbit pAb R163 capture 1:500, mAb 1:20000; antigen 13.3 ug/ml, 2.5-fold series, step 8
HPV 31 VLP抗原 = target: T2, HPV 31 VLP抗原; assay: direct ELISA on coated VLP antigens
HPV 58 VLP抗原 = target: T3, HPV 58 VLP抗原; assay: direct ELISA on coated VLP antigens
[3] = target: T1, HPV45型衣壳蛋白L1病毒样颗粒(VLP)抗原 (HPV 45型); assay: sandwich ELISA, rabbit pAb R163 capture 1:500, mAb 1:20000; antigen 13.3 ug/ml, 2.5-fold series, step 1
[4] = target: T1, HPV45型衣壳蛋白L1病毒样颗粒(VLP)抗原 (HPV 45型); assay: sandwich ELISA, rabbit pAb R163 capture 1:500, mAb 1:20000; antigen 13.3 ug/ml, 2.5-fold series, step 10
[5] = target: T1, HPV45型衣壳蛋白L1病毒样颗粒(VLP)抗原 (HPV 45型); assay: sandwich ELISA, rabbit pAb R163 capture 1:500, mAb 1:20000; antigen 13.3 ug/ml, 2.5-fold series, step 5
[6] = target: T1, HPV45型衣壳蛋白L1病毒样颗粒(VLP)抗原 (HPV 45型); assay: direct ELISA on coated HPV45 VLP, purified antibody titrated; positive if OD > 2.1 x NC
[7] = target: T1, HPV45型衣壳蛋白L1病毒样颗粒(VLP)抗原 (HPV 45型); assay: sandwich ELISA, rabbit pAb R163 capture 1:500, mAb 1:20000; antigen 13.3 ug/ml, 2.5-fold series, step 11
[8] = target: T1, HPV45型衣壳蛋白L1病毒样颗粒(VLP)抗原 (HPV 45型); assay: sandwich ELISA, rabbit pAb R163 capture 1:500, mAb 1:20000; antigen 13.3 ug/ml, 2.5-fold series, step 7
[9] = target: T1, HPV45型衣壳蛋白L1病毒样颗粒(VLP)抗原 (HPV 45型); assay: sandwich ELISA, rabbit pAb R163 capture 1:500, mAb 1:20000; antigen 13.3 ug/ml, 2.5-fold series, step 2

Binder | OD [1] | OD [2] | binding result (HPV 31 VLP抗原) | binding result (HPV 58 VLP抗原) | OD [3] | OD [4] | OD [5] | 灵敏度 [6] | OD [7] | OD [8] | OD [9]
杂交瘤细胞株7A5(CGMCC NO:45706)分泌的鼠源单克隆抗体 (antibody, V domains shown, also called 鼠单抗7A5; 抗体7A5) VH: QPGAELVKPGASVKLSCKASGYTFTSYWMHWVKQRPGQGLEWIGEINPSNGHTNYNEKFKSKATLTVDKSSSTAYMQLSSLTSEDSAVYYCAPCYGSSYDYYAMDYWGQGTSVTVSS VL: DIVLTQSPASLAVSLGQRATISCRASQSVSTSSYSYMHWYQQKPGQPPKLLIKYASNLESGVPARFSGSGSGTDFTLNIHPVEEEDTATYYCQHSWEIPYTFGGGTKLEIK | 2.34 OD and 2.37 OD | 0.175 OD and 0.189 OD | no binding | no binding | 3.12 OD | 0.068 OD and 0.072 OD | 1.54 OD and 1.56 OD | 0.0005 µg/mL | 0.066 OD and 0.056 OD | 0.379 OD and 0.358 OD | 3.05 OD and 3 OD
杂交瘤细胞株11G1(CGMCC NO:45707)分泌的鼠源单克隆抗体 (antibody, V domains shown, also called 鼠单抗11G1; 抗体11G1) VH: QVQLQQPGAELVKPGASVKLSCKASGYTFTSYWMHWVKRRPGQGLEWIGEINPSNGLTNYNEKFKSKGTLTVDKSSSAAFMHLSSLTSEDSAVYYCARFHGSDLYAMDYWGQGTSVTVSS VL: DIVLTQSPASLAVSLGQRATISCRASQSVSTSSYSYMHWYQQKPGQPPKLLIKYASNLESGVPARFSGSGSGTDFTLNIHPVEEEDTATYYCQHSWEIPYTFGGGTKLEIK | 1.82 OD and 1.98 OD | 0.115 OD and 0.108 OD | no binding | no binding | 3.1 OD and 3.01 OD | 0.062 OD and 0.051 OD | 0.922 OD and 1.02 OD | 0.0005 µg/mL | 0.05 OD and 0.046 OD | 0.218 OD and 0.206 OD | 3.03 OD and 3.09 OD

— patent CN117466995A (YIDAO BIOTECHNOLOGY SUZHOU CO LTD, dated 2024)
